Results taken from patent US20040248789A1 (TIANJIN FUSOGEN BIOTECH, published 2004).

Assays:
[1] = molecular target: gp41 N-peptide (35-70); assay: Superdex 75 gel filtration; free Fusonex elutes at 17.3 ml
[2] = molecular target: gp41 N-peptide (35-70); assay: CD thermal melting of the peptide complex, 20-95° C.
[3] = molecular target: HIV-1 gp160HXB (HIV-1, UniProt P04578 512-856); assay: cell-based or functional assay
Chain of HIV-1 gp160HXB (P04578 512-856): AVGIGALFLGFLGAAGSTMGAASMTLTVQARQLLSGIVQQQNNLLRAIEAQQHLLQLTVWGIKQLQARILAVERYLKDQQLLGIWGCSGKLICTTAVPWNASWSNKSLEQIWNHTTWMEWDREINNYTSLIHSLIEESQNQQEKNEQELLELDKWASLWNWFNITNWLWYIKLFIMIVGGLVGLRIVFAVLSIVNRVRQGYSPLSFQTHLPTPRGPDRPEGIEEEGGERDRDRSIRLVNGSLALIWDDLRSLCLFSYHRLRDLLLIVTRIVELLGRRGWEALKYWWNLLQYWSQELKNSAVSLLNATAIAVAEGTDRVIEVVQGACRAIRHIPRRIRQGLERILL

Chain of gp41 N-peptide (35-70) (P04578 546-581): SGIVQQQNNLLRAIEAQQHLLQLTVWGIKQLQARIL

Row | Molecule | elution peak of the complex [1] [mL] | 50% melting temperature of the complex [2] [° C.] | IC50, cell-cell fusion induced by HIV-1 gp160HXB (luciferase reporter) [3] [nM] | IC50 relative to T-20, cell-cell fusion induced by HIV-1 gp160HXB [3]
1 | Fusonex (peptide) | 13.2 | 70 |  | 
2 | T-20 (peptide) |  | 51 |  | 
3 | Ac-SWETWEREIENYTKQIYKILEESQEQQDRNEKDLLE-NH2 [Fusonex] |  |  | 1.2 | ~0.05 fold of T-20
